Data as given in patent US20220119490A1 (Genentech, published 2022).

Columns and labels:
[1] = target: T1, PTPRD ΔG61 ΔE106 variant extracellular domain (human, UniProt P23468 21-1265); experiment: extracellular interaction screen: pentameric PTPRD variant ECD on ECD-Fc prey (FIG. 5L)
T1 construct: extracellular domain; meaning of the deletion notation not explained; also called IG1 mutant
T1 sequence (looked up): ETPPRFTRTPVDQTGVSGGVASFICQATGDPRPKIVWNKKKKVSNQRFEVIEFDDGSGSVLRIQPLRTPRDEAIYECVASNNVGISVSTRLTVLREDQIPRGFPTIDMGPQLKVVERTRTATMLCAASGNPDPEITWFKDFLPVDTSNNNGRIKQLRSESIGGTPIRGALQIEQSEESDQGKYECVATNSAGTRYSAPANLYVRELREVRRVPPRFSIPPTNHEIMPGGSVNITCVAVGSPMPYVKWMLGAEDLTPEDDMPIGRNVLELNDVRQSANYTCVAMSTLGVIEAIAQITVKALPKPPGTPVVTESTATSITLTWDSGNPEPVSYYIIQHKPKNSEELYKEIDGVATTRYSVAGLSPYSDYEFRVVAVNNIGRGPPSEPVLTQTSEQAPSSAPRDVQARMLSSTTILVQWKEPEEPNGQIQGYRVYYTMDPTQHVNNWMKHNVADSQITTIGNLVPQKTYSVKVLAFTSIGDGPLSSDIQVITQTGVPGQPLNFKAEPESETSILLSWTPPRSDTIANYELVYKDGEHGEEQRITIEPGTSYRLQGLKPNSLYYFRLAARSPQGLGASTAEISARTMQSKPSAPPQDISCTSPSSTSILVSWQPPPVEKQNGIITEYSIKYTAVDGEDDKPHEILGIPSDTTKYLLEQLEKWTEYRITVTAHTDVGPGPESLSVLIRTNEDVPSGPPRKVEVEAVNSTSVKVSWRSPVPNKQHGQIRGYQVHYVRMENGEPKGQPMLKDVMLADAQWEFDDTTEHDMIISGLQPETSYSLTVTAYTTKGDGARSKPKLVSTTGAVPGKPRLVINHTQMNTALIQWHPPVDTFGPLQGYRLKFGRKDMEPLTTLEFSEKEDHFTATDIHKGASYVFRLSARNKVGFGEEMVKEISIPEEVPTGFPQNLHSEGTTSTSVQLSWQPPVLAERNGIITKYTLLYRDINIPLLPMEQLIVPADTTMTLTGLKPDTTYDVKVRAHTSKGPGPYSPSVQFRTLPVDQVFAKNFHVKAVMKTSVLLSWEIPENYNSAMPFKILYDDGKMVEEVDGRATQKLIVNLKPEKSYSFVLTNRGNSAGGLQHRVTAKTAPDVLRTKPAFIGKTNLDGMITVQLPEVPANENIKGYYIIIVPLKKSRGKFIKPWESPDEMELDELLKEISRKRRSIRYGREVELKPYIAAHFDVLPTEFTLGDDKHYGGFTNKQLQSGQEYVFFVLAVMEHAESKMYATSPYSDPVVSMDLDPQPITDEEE

[2] = target: T2, PTPRD E406K variant extracellular domain (human, UniProt P23468 21-1265); experiment: as above
T2 construct: extracellular domain; also called FN1 mutant
T2 sequence (looked up): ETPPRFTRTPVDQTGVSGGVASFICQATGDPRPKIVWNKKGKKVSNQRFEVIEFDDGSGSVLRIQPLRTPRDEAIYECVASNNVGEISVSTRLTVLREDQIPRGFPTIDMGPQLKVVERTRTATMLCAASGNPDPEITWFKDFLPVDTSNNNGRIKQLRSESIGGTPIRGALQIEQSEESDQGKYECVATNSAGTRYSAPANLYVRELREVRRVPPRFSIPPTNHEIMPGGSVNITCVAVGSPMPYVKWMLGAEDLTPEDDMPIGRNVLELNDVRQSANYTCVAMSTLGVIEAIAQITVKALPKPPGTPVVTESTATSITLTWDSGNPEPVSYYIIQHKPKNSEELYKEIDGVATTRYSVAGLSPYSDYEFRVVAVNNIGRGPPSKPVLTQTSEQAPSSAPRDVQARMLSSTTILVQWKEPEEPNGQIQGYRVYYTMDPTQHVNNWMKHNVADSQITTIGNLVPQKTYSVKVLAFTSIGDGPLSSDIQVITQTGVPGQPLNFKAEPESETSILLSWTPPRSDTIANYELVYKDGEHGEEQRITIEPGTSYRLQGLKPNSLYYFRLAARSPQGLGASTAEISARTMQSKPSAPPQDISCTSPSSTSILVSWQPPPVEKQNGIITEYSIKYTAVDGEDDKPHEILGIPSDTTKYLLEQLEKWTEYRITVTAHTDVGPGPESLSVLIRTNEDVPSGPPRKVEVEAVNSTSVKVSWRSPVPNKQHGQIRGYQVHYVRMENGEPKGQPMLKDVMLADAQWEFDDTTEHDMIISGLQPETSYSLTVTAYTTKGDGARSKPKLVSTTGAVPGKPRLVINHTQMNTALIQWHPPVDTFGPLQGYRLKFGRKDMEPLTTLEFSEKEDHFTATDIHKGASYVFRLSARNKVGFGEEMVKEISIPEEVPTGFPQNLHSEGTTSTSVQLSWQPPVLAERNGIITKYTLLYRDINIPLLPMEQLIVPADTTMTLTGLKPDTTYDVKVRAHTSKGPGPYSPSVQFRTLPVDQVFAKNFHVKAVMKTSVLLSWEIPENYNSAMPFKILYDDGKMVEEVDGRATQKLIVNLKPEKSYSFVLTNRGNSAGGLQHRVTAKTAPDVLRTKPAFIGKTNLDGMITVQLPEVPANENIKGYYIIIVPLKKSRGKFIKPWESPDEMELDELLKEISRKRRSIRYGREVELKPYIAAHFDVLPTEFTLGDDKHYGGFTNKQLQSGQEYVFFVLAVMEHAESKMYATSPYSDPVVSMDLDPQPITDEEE

binding result [1]: no binding
binding result [2]: no binding
B1: LRRC4B extracellular domain (receptor, human, UniProt Q9NT99 36-576, looked up)
chain: AGGGGVAVTSAAGGGSPPATSCPVACSCSNQASRVICTRRDLAEVPASIPVNTRYLNLQENGIQVIRTDTFKHLRHLEILQLSKNLVRKIEVGAFNGLPSLNTLELFDNRLTTVPTQAFEYLSKLRELWLRNNPIESIPSYAFNRVPSLRRLDLGELKRLEYISEAAFEGLVNLRYLNLGMCNLKDIPNLTALVRLEELELSGNRLDLIRPGSFQGLTSLRKLWLMHAQVATIERNAFDDLKSLEELNLSHNNLMSLPHDLFTPLHRLERVHLNHNPWHCNCDVLWLSWWLKETVPSNTTCCARCHAPAGLKGRYIGELDQSHFTCYAPVIVEPPTDLNVTEGMAAELKCRTGTSMTSVNWLTPNGTLMTHGSYRVRISVLHDGTLNFTNVTVQDTGQYTCMVTNSAGNTTASATLNVSAVDPVAAGGTGSGGGGPGGSGGVGGGSGGYTYFTTVTVETLETQPGEEALQPRGTEKEPPGPTTDGVWGGGRPGDAAGPASSSTTAPAPRSSRPTEKAFTVPITDVTENALKDLDDVMKTTK
notes: extracellular domain; ECD-Fc prey; also called NGL-3; netrin-G ligand-3
